According to PMC4423211 (2015):

T1: IL1RAPL1 (Mus musculus (Mouse), UniProt P59823)
T1 chain: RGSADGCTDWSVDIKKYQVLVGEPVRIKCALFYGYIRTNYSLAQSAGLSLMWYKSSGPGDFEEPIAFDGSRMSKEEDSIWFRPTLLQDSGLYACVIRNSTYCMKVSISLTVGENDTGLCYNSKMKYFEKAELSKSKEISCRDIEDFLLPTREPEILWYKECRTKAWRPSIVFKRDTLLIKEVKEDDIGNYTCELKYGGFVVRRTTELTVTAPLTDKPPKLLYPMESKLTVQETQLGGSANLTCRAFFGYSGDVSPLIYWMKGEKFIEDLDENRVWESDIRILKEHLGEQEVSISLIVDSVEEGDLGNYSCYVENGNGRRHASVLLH

T2: IL1RAP (Mus musculus (Mouse), UniProt Q61730)
T2 chain: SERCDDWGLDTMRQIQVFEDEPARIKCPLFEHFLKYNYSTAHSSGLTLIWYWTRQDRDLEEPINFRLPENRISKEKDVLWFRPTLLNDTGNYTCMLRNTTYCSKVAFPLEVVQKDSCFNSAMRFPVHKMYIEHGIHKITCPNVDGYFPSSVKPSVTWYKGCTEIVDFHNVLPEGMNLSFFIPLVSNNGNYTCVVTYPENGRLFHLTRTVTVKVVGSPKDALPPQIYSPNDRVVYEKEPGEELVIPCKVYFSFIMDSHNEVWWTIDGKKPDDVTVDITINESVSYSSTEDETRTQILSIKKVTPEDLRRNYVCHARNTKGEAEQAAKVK


How the values were obtained:
[1] = target: IL-1RAcP-ECD-Fc, wild type (mouse) (UniProt Q61730); assay: SPR; equilibrium; Biacore T200, 25 °C, 10 mM Hepes (pH 7.9), 150 mM NaCl, 0.05% Tween-20; IL-1RAcP-ECD-Fc captured (about 700 RU) by anti-Fc antibodies immobilised on a CM5 chip; PTPδ Ig1–Fn1 variants or mutants injected as analytes, 15.6 to 4,000 nM
[2] = target: IL1RAPL1-ECD-His6, wild type (mouse) (UniProt P59823)
IL1RAPL1-ECD-His6, wild type (mouse), sequence (P59823 19-352): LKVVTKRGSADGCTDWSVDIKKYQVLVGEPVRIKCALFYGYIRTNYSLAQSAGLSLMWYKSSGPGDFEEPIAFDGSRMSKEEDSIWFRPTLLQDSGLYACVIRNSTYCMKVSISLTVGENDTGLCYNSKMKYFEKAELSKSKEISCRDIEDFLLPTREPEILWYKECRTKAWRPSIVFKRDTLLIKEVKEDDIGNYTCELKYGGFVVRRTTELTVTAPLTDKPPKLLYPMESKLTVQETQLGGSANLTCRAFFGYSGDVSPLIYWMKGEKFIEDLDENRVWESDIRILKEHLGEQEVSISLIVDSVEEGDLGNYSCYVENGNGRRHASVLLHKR

[3] = target: IL1RAPL1-ECD-His6, wild type (mouse) (UniProt P59823); assay: SPR; equilibrium; Biacore T200, 25 °C, 10 mM Hepes (pH 7.9), 150 mM NaCl, 0.05% Tween-20; IL1RAPL1-ECD-His6 amine-coupled on a CM5 chip (about 2,000 RU); PTPδ Ig1–Fn1 variants or mutants injected as analytes, 15.6 to 4,000 nM
[4] = target: T1, IL1RAPL1; assay: SPR equilibrium 25C, PTPRD Ig1-Fn1 analyte
[5] = target: T2, IL1RAP; assay: SPR equilibrium 25C, PTPRD Ig1-Fn1 analyte

| Kd [1] [µM] | Kd [3] [µM] | Kd [4] [µM] | Kd [5] [µM] | Molecule | further results |
| --- | --- | --- | --- | --- | --- |
| 2 | 0.8 | – | – | PTPδ Ig1–Fn1 splicing variant meA9/− (domain or fragment) | – |
| 2.2 | – | – | – | PTPδ Ig1–Fn1 splicing variant −/+ (no meA, with meB) (domain or fragment) | – |
| 2.4 | – | – | – | PTPδ Ig1–Fn1 splicing variant −/− (lacking both meA and meB) (domain or fragment) | – |
| 0.91 | 0.16 | – | – | PTPδ Ig1–Fn1, meB replaced by Gln-Leu-Glu-Gln (domain or fragment) | – |
| 1.5 | 0.15 | – | – | PTPδ Ig1–Fn1, meB replaced by two tandem units of meB (domain or fragment) | – |
| – | – | > 4 | 2.8 | PTPRD_A3B0 (protein) ETPPRFTRTPVDQTGVSGGVASFICQATGDPRPKIVWNKKGKKVSNQRFEVIEFDDGSGSVLRIQPLRTPRDEAIYECVASNNVGEISVSTRLTVLREDQIPRGFPTIDMGPQLKVVERTRTATMLCAASGNPDPEITWFKDFLPVDTSNNNGRIKQLRSESIGALQIEQSEESDQGKYECVATNSAGTRYSAPANLYVRVRRVPPRFSIPPTNHEIMPGGSVNITCVAVGSPMPYVKWMLGAEDLTPEDDMPIGRNVLELNDVRQSANYTCVAMSTLGVIEAIAQITVKA | – |
| – | – | > 4 | 2.2 | PTPRD_A0B1 (protein) ETPPRFTRTPVDQTGVSGGVASFICQATGDPRPKIVWNKKGKKVSNQRFEVIEFDDGSGSVLRIQPLRTPRDEAIYECVASNNVGEISVSTRLTVLREDQIPRGFPTIDMGPQLKVVERTRTATMLCAASGNPDPEITWFKDFLPVDTSNNNGRIKQLRSGALQIEQSEESDQGKYECVATNSAGTRYSAPANLYVRELREVRRVPPRFSIPPTNHEIMPGGSVNITCVAVGSPMPYVKWMLGAEDLTPEDDMPIGRNVLELNDVRQSANYTCVAMSTLGVIEAIAQITVKA | – |

Second part, the molecule before the results:

| Molecule | Kd [1] [µM] | Kd [3] [µM] | Kd [4] [µM] | Kd [5] [µM] | further results |
| --- | --- | --- | --- | --- | --- |
| PTPδ Ig1–Fn1 E286A (domain or fragment) | 5.3 | – | – | – | – |
| PTPδ Ig1–Fn1 R75A (domain or fragment) | 1.1 | 2.8 | – | – | synaptogenic (postsynapse-inducing) activity: accumulation of Shank2 in cortical neurons around magnetic beads conjugated with PTPδ-ECD-Fc R75A, against wild-type PTPδ-ECD-Fc [2]: 7% |
| PTPδ Ig1–Fn1 R196A (domain or fragment) | 0.89 | 1.7 | – | – | – |
| PTPδ Ig1–Fn1 Y273A (domain or fragment) | – | 0.86 | – | – | – |
| PTPδ Ig1–Fn1 splicing variant meA3/+ (domain or fragment) | 0.51 | – | – | – | – |
| PTPδ Ig1–Fn1 splicing variant meA3/− (domain or fragment) | 2.8 | – | – | – | – |
| PTPδ Ig1–Fn1 splicing variant meA6/+ (domain or fragment) | 0.73 | 0.81 | – | – | – |
| PTPδ Ig1–Fn1 splicing variant meA6/− (domain or fragment) | 2.3 | – | – | – | – |
| PTPδ Ig1–Fn1, meB replaced by Gly-Ser-Ser-Gly (domain or fragment) | 0.64 | 0.14 | – | – | – |
| PTPδ Ig1–Fn1, meB replaced by three tandem units of meB (domain or fragment) | 3.8 | 0.42 | – | – | – |
| PTPRD_A6B0 (protein) ETPPRFTRTPVDQTGVSGGVASFICQATGDPRPKIVWNKKGKKVSNQRFEVIEFDDGSGSVLRIQPLRTPRDEAIYECVASNNVGEISVSTRLTVLREDQIPRGFPTIDMGPQLKVVERTRTATMLCAASGNPDPEITWFKDFLPVDTSNNNGRIKQLRSGGTPIRGALQIEQSEESDQGKYECVATNSAGTRYSAPANLYVRVRRVPPRFSIPPTNHEIMPGGSVNITCVAVGSPMPYVKWMLGAEDLTPEDDMPIGRNVLELNDVRQSANYTCVAMSTLGVIEAIAQITVKA | – | – | > 4 | 2.3 | – |
| PTPRD_A6B1 (protein) ETPPRFTRTPVDQTGVSGGVASFICQATGDPRPKIVWNKKGKKVSNQRFEVIEFDDGSGSVLRIQPLRTPRDEAIYECVASNNVGEISVSTRLTVLREDQIPRGFPTIDMGPQLKVVERTRTATMLCAASGNPDPEITWFKDFLPVDTSNNNGRIKQLRSGGTPIRGALQIEQSEESDQGKYECVATNSAGTRYSAPANLYVRELREVRRVPPRFSIPPTNHEIMPGGSVNITCVAVGSPMPYVKWMLGAEDLTPEDDMPIGRNVLELNDVRQSANYTCVAMSTLGVIEAIAQITVKA | – | – | 0.81 | 0.73 | – |
| PTPRD_A0B0 (protein) ETPPRFTRTPVDQTGVSGGVASFICQATGDPRPKIVWNKKGKKVSNQRFEVIEFDDGSGSVLRIQPLRTPRDEAIYECVASNNVGEISVSTRLTVLREDQIPRGFPTIDMGPQLKVVERTRTATMLCAASGNPDPEITWFKDFLPVDTSNNNGRIKQLRSGALQIEQSEESDQGKYECVATNSAGTRYSAPANLYVRVRRVPPRFSIPPTNHEIMPGGSVNITCVAVGSPMPYVKWMLGAEDLTPEDDMPIGRNVLELNDVRQSANYTCVAMSTLGVIEAIAQITVKA | – | – | > 4 | 2.4 | – |
| PTPRD_A3B1 (protein) ETPPRFTRTPVDQTGVSGGVASFICQATGDPRPKIVWNKKGKKVSNQRFEVIEFDDGSGSVLRIQPLRTPRDEAIYECVASNNVGEISVSTRLTVLREDQIPRGFPTIDMGPQLKVVERTRTATMLCAASGNPDPEITWFKDFLPVDTSNNNGRIKQLRSESIGALQIEQSEESDQGKYECVATNSAGTRYSAPANLYVRELREVRRVPPRFSIPPTNHEIMPGGSVNITCVAVGSPMPYVKWMLGAEDLTPEDDMPIGRNVLELNDVRQSANYTCVAMSTLGVIEAIAQITVKA | – | – | > 4 | 0.51 | – |
| PTPRD_A9B1 (protein) ETPPRFTRTPVDQTGVSGGVASFICQATGDPRPKIVWNKKGKKVSNQRFEVIEFDDGSGSVLRIQPLRTPRDEAIYECVASNNVGEISVSTRLTVLREDQIPRGFPTIDMGPQLKVVERTRTATMLCAASGNPDPEITWFKDFLPVDTSNNNGRIKQLRSESIGGTPIRGALQIEQSEESDQGKYECVATNSAGTRYSAPANLYVRELREVRRVPPRFSIPPTNHEIMPGGSVNITCVAVGSPMPYVKWMLGAEDLTPEDDMPIGRNVLELNDVRQSANYTCVAMSTLGVIEAIAQITVKA | – | – | 0.15 | 0.68 | – |
| PTPRD_A9B0 (protein) ETPPRFTRTPVDQTGVSGGVASFICQATGDPRPKIVWNKKGKKVSNQRFEVIEFDDGSGSVLRIQPLRTPRDEAIYECVASNNVGEISVSTRLTVLREDQIPRGFPTIDMGPQLKVVERTRTATMLCAASGNPDPEITWFKDFLPVDTSNNNGRIKQLRSESIGGTPIRGALQIEQSEESDQGKYECVATNSAGTRYSAPANLYVRVRRVPPRFSIPPTNHEIMPGGSVNITCVAVGSPMPYVKWMLGAEDLTPEDDMPIGRNVLELNDVRQSANYTCVAMSTLGVIEAIAQITVKA | – | – | 0.8 | 2 | – |
